The values below come from patent publication US20240067747A1 (SHANGHAI HUAOTA BIOPHARMACEUTICAL, published 2024).

Changes are numbered by the printed parent chain.

The target in test [1] is T1, Cynomolgus CD73 protein (Novoprotein, item No. CI21) (cynomolgus, UniProt A0A2K5V5U7 27-547).
T1 construct: Bought protein
T1 sequence: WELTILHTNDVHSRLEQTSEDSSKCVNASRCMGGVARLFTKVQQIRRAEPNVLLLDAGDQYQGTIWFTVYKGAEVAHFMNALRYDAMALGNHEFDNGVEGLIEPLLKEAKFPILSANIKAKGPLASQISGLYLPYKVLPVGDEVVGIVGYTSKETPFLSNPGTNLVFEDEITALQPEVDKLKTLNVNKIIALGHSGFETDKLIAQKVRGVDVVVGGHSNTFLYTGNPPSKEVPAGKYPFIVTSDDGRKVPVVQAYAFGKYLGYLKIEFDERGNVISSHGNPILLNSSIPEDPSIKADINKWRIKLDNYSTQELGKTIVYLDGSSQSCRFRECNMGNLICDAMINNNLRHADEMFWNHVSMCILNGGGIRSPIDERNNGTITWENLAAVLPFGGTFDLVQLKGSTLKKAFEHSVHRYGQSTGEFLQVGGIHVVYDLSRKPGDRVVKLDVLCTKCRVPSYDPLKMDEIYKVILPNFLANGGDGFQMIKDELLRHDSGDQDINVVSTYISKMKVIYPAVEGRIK
Kind of test: SPR, Biacore T200, antibody captured on protein A chip, cynomolgus CD73 as analyte, 1:1 model. As to the method: (§1) In the tests, the assay buffer HBS-EP+ (pH 7.4) and the protein A chip (manufacturer: GE, item No.: 29-1275-56) were used.
(§2) The temperatures of a sample chamber and a flow path were set at 25° C., and the protein A chip respectively captured antigen-binding proteins as ligands and immobilized at about 100 RU. […] After association for 120 s at a flow rate of 30 μL/min, dissociation was carried out for 600 s. Regeneration was then carried out for 60 s with 10 mM Glycine (pH 1.5) at a flow rate of 50 μL/min to implement multi-cycle kinetic detection. A 1:1 binding model was selected for fitting analysis in a Fit local mode to acquire the association rate constant (ka), dissociation rate constant (kd) and dissociation equilibrium rate constant (KD).

For test [2], the target named is T2, Lysozyme from chicken egg (Sigma, L3790) (chicken, UniProt P00698 19-147).
T2 construct: Non-target molecule, amine-coupled to a CM5 chip
T2 sequence (P00698 19-147 limits assumed): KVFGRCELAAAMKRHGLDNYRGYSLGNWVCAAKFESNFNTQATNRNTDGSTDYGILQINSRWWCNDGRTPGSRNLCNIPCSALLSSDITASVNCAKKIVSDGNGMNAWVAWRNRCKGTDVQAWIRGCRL
In words: SPR, Biacore 8K, lysozyme immobilized on CM5 chip. As to the method:
The non-specific adsorption effect of antigen-binding proteins and non-target molecules were determined by using the SPR method.
The series sensor chip CM5 (GE, #BR-1005-30) was equilibrated at room temperature for 20-30 min and then loaded into the Biacore 8K (GE) instrument. Lysozyme solution (Sigma, #L3790) from egg and trypsin inhibitor type 1-S (Sigma, #T-2327) from Glycine max were immobilized onto the CM5 chip using an amino coupling kit (GE, #BR-1000-50). The injection buffer was HBS-EP (1×) (GE, #BR-1006-69) and four equilibration cycles were set up. The polyclonal rabbit anti-lysozyme (ABcam, Ab391), anti-trypsin inhibitor antibodies (LifeSpan Biosciences, #LS-C76609), chimeric antibodies and humanized antibodies were diluted with equilibration buffer to 1000 nM, and the flow rate was set at 5 μL/min and injection channels 1, 2 and 3, Flow Cell 1 and 2 were selected. The association time was 10 min and the dissociation time was 10 min.

Test [3] has as its target T3, recombinant human CD73 protein (ACRO Biosystems, item No. CD3-H52H7) (human, UniProt P21589 27-547).
T3 construct: also called recombinant CD73 protein
T3 sequence (looked up): T1 sequence with T199M, A350T, I466V
Kind of test: ELISA, plate coated with CD73 protein, anti-human-IgG-Fc-HRP. As to the method: The ELISA well plate was coated with 30 ul of 2 ug/ml CD73 protein (ACRO, #CD3-H52H7-100μg) solution and incubated overnight at 4° C. Then, the well plate was washed 3 times with PBST, blocked with 5% MILK/PBS at room temperature for 1 h, and then washed 3 times with PBST. […] The diluted antigen-binding protein solutions were then added to the ELISA well plate, 30 ul per well, and incubated at room temperature for 30 min. After the incubation, the well plate was washed 3 times. Anti-human-IgG-Fc-HRP was added and incubated at room temperature for 50 min. After the incubation, the well plate was washed 3 times. The TMB solution was added. The reaction was then terminated with 2M HCl and the OD450 reading was checked.

The target of test [4] is T3, recombinant human CD73 protein (ACRO …). In words: SPR, Biacore T200, antibody captured on protein A chip, human CD73 as analyte, 1:1 model. As to the method:
as §1
as §2, with “chimeric antibodies or humanized antibodies” for “antigen-binding proteins”

B1: 900567 (human-mouse chimeric anti-CD73 antigen-binding protein expressed from 124A9 variable regions) (antibody, V domains shown)
VH: QVQLQQPGAELVKPGASVKLSCKASGYTFTSYWIHWVKQRPGQGLDWIGMIHPNSGSTYYNEKFKSKATLTVDKSSSTAYMQLSSLTSEDSAVYYCARYYGSDYEWYFDVWGTGTTVTVSS
VL: DIVMTQSQKFMSTSVGDRVSITCKASQNVRTAVVWYQQNPGQSPKALIYLASNRHTGVPDRFTGSGSGTDFTLTISNVHSEDLADYFCLQHWNYPYTFGGGTKLEIK
In test [1], B1 showed a Kd of 0.709 nM, a koff of 0.000606 s⁻¹ and a kon of 855000 M⁻¹ s⁻¹. Moreover, the binding result in test [2] is “no binding (tested: 1000 nM antibody; 20 RU)”. Also, the EC50 in test [3] was 0.282 µg/mL. In addition, in test [4], the dissociation constant (Kd) stood at 0.652 nM, the koff is 0.00049 s⁻¹ and the on-rate constant (kon) was found to be 752000 M⁻¹ s⁻¹.

B2: 900725 (humanized anti-CD73 antigen-binding protein) (antibody, V domains shown)
VH: QVQLVQSGAEVKKPGASVKLSCKASGYTFTSYWIHWVRQAPGQGLEWIGMIHPNSGSTYYNEKFKGRATLTVDKSTSTAYMELSSLRSEDTAVYYCARYYGSDYEWYFDVWGQGTTVTVSS
VL: DIQMTQSPSSMSASVGDRVTITCKASQNVRTAVVWYQQKPGKAPKALIYLASNRHTGVPDRFSGSGSGTDFTLTISSLQPEDFATYFCLQHWNYPYTFGQGTKLEIK
As to B2, in test [1], binding was characterised by a dissociation constant (Kd) of 0.368 nM, the koff was 0.000156 s⁻¹ and the kon came out at 425000 M⁻¹ s⁻¹. Also, the binding result in test [2] is listed as “no binding (tested: 1000 nM antibody; 20 RU)”. In addition, in test [3], the concentration for a half-maximal effect (EC50) came out at 0.327 µg/mL. Further, in test [4], the Kd stood at 0.201 nM, the off-rate (koff) worked out at 0.000126 s⁻¹ and the kon is 626000 M⁻¹ s⁻¹.

B3: 900727 (humanized anti-CD73 antigen-binding protein) (antibody, V domains shown)
VH: B2 VH with L20V, N61A, E62Q, K65Q, A68V, L70I
VL: B2 VL
In test [1], B3 came in with a Kd of 0.798 nM, a koff of 0.00074 s⁻¹ and a kon of 927000 M⁻¹ s⁻¹. For the same molecule, the binding result in test [2] was “no binding (tested: 1000 nM antibody; 20 RU)”. Moreover, the EC50 in test [3] is 0.364 µg/mL. In addition, in test [4], the dissociation constant (Kd) is 0.789 nM, the koff is 0.000494 s⁻¹ and the on-rate constant (kon) is 626000 M⁻¹ s⁻¹.

B4: 900726 (humanized anti-CD73 antigen-binding protein) (antibody, V domains shown)
VH: B2 VH
VL: B2 VL with M11L, F87Y
In test [1], B4 displayed a Kd of 2 nM, an off-rate constant (koff) of 0.0032 s⁻¹ and a kon of 1.6e+06 M⁻¹ s⁻¹. Also, the binding result in test [2] was “no binding (tested: 1000 nM antibody; 20 RU)”. Further, in test [3], the EC50 was 0.361 µg/mL. For the same molecule, in test [4], the dissociation constant (Kd) was 2.49 nM, the koff was found to be 0.00124 s⁻¹ and the on-rate (kon) amounted to 496000 M⁻¹ s⁻¹.

B5: 900728 (humanized anti-CD73 antigen-binding protein) (antibody, V domains shown)
VH: B2 VH with L20V, K65Q, A68V, L70M
VL: B2 VL with M11L, F87Y
B5: in test [1], the Kd was found to be 0.561 nM, the off-rate (koff) was found to be 0.000381 s⁻¹ and the on-rate (kon) was 678000 M⁻¹ s⁻¹. The binding result in test [2] is “no binding (tested: 1000 nM antibody; 20 RU)”. Also, in test [3], the concentration for a half-maximal effect (EC50) came out at 0.29 µg/mL. In test [4], the dissociation constant Kd was 0.377 nM, the koff was 0.000317 s⁻¹ and the kon is 841000 M⁻¹ s⁻¹.
